Test results published in the RNAGym collection of RNA variant scans (doi:10.7554/elife.80360).

B1: HDV Ribozyme (parent)
chain: GGCCGGCAUGGUCCCAGCCUCCUCGCUGGCGCCGGCUGGGCAACAUUCCGAGGGGACCGUCCCCUCGGUAAUGGCGAAUGGGACCCA

Variants of: B1
Test: self-cleavage, relative activity (ratio to wild type); higher = more cleavage; co-transcriptional

Variant | self-cleavage
C19G G59C | 0.141
C19G G81C | 0.0462
C19G G81A | 0.117
C19G A78G | 0.0875
C19U C49A | 0.0378
C19U C26A | 0.446
C19U C26G | 0.356
U20A U23G | 0
U20A U46C | 0
C19A U79C | 0.107
C19A U79G | 0.0923
C19U | 0.152
C19G | 0.0688
C19G A42C | 0.0978
C19G A42U | 0
C19G C22G | 0
C19G C22U | 0.0804
C19G C22A | 0
U20A C63U | 0.101
U20A C63A | 0.0504
U20A A51C | 0
U20A A51G | 0
U20A A51U | 0.104
C19G A87G | 0.16

Variant | self-cleavage
C19G A87U | 0.0839
C19G A87C | 0.0849
C19A U72C | 0.0978
C19A U72G | 0.095
C19G G40A | 0.0573
C19G G40C | 0.102
U20A C86U | 0.119
U20A C86A | 0.0723
U20A C86G | 0.166
C19U U23A | 0.129
U20A G54C | 0.196
U20A G54U | 0.0923
U20A G29U | 0.0875
U20A C41U | 0
U20A C41A | 0.0396
C19U C21G | 0.0339
C19U U79C | 0.0415
C19U G35A | 0.234
C19U G35C | 0.0831
C19U G39U | 0.0449
C19U G39A | 0.0779
C19U G67A | 0.0739
C19A U60A | 0.141
C19A U60C | 0.107

Variant | self-cleavage
C19A U60G | 0.0361
C19U G54C | 0.2
C19G C33U | 0.151
C19G A43U | 0.0594
C19G A43C | 0.0652
C19G A77U | 0.0437
C19G A77G | 0.0426
C19G A77C | 0.111
C19U A87G | 0.107
C19U A87C | 0.235
C19G A45U | 0.0396
C19G A45C | 0.0583
U20A A78C | 0.107
U20A A78G | 0
U20A A78U | 0
U20A C84G | 0.196
U20A C84U | 0.0449
C19G G55U | 0.04
C19G G52A | 0.0739
C19G G52C | 0.121
C19U G53C | 0.0875
C19U G53A | 0.229
U20A C66G | 0.107
U20A C66A | 0

Variant | self-cleavage
U20A C44A | 0.0573
U20A C44G | 0.111
U20A C44U | 0
C19G G28A | 0.237
U20A G67U | 0.115
U20A G67C | 0
U20A G67A | 0.0462
C19G U72C | 0.101
U20A U65A | 0.0504
C19U U46A | 0.0875
C19G A51C | 0.0369
C19G A51G | 0.0361
C19U A83U | 0.148
C19U A83G | 0.0985
C19U G52C | 0.326
U20A G53C | 0.0773
U20A G53A | 0.122
C19G G39U | 0.0707
C19G G39A | 0.032
C19U C33G | 0.0923
C19U C33U | 0.234
C19U U37C | 0.185
C19U U37A | 0.0936
C19U U37G | 0.0755

Variant | self-cleavage
U20A A70G | 0.147
U20A A70C | 0.104
U20A A70U | 0.0615
C19G C26U | 0.249
U20A C62G | 0.0639
C19U C66G | 0.155
U20A C26U | 0.158
U20A C26A | 0.0594
C19U C61G | 0.176
C19U C41U | 0.173
U20A G28U | 0.0386
U20A G28C | 0.0573
U20A G28A | 0.145
C19U G55C | 0.164
C19U G55A | 0.225
C19G U23G | 0.0811
C19G U23A | 0
U20A U69C | 0
U20A U69G | 0.0519
C19G G31C | 0.104
C19U U69A | 0.212
C19U U69G | 0.0692
C19U C44G | 0.0519
C19U G81C | 0.101

Variant | self-cleavage
C19U G81A | 0
U20A U72A | 0.107
U20A U72G | 0
C19G G54A | 0.116
C19G G54U | 0.0594
C19G A83U | 0.0504
U20A A77G | 0.0723
U20A A77C | 0.151
C19G U65G | 0.111
C19G U65C | 0
C19G U65A | 0.0354
C19U C64A | 0.0554
C19U C64U | 0.148
C19U C64G | 0.0923
U20C | 0.129
U20A | 0.0723
C19U C63G | 0.0707
C19U C63U | 0.134
U20A G81A | 0
U20A G81U | 0.0346
U20A G39U | 0.0852
U20A G34U | 0
U20A C64U | 0.138
C19G G50C | 0.0528

Variant | self-cleavage
C19G G50A | 0.073
C19G G50U | 0.108
U20A A87U | 0.0282
U20A A87G | 0.0831
U20A A87C | 0.0631
U20A G76A | 0.135
U20A G76U | 0
C19G G67U | 0.058
C19G G67A | 0.0779
C19G C32U | 0.0302
C19G C84G | 0.0941
U20A C33G | 0.151
C19U A77U | 0.107
U20A G55U | 0.0302
U20A G55C | 0.0536
C19G C58U | 0.0272
C19G C58A | 0.0256
C19U C62A | 0.142
C19U C62U | 0.244
C19G G76U | 0.0791
C19G C49A | 0.0354
C19G C75G | 0.032
C19G C85U | 0
